Laboratory results taken from US6051698.
pKd: −log10 of the molar value. Like-named read-outs stand apart in the source and are kept apart here.

Key:
[1] = system: VEGF165 (Homo sapiens), P15692-4; settings: 2'-NH2 pyrimidines, 2'-OMe purines; CITED US 5811533; cited from earlier work
[2] = system: T1, VEGF165 (Homo sapiens), P15692-4; assay: filter; settings: 2'-F pyrimidines, 2'-OH purines, 37 C
T1 sequence: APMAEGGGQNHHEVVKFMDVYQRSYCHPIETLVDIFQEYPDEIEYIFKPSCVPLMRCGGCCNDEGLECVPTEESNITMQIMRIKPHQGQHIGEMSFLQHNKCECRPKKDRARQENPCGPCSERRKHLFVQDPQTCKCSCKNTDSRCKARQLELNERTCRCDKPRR

**Q.** With NX-213 as the substance, how does the pKd [1] read?
**A.** The pKd was 9.85.

**Q.** With “GGGAGGACGAUGCGGUAGGAAGAAUUGGAAGCGCAUUUUCCUCGYCAGACGACUCGCCCGA [VP30.22]” as the substance, how does the pKd [2] read?
**A.** Its pKd is 10.70.

**Q.** With “GGGAGGACGAUGCGGYGAACCGAUGGAAUUUUUGGACGCUCGCCUCAGACGACUCGCCCGA [VP30.2]” as the substance, how does the pKd [2] read?
**A.** The pKd was 11.00.

**Q.** With “GGGAGGACGAUGCGGAYCAACCGAUUGACGUUAUGGGACGCUGGUCAGACGACUCGCCCGA [VP30.5]” as the substance, how does the pKd ([2]; single determination) read?
**A.** The pKd was 11.10.

**Q.** With “GGGAGGACGAUGCGGCGGYACUUUGGAAGAAUUGAAUUUCCCGCUCAGACGACUCGCCCGA [VP30.26]” as the substance, how does the pKd ([2]; single determination) read?
**A.** Its pKd is 11.00.

**Q.** With “GGGAGGACGAUGCGGAGAAUCAGUGAAUGCUUAUAAAUCUCGYGUCAGACGACUCGCCCGA [VT30.3]” as the substance, how does the pKd ([2]; single determination) read?
**A.** The pKd was 11.30.
